Data reported in publication PMC3871816, “The Arabidopsis adaptor protein AP-3µ interacts with the G-protein β subunit AGB1 and is involved in abscisic acid regulation of germination and post-germination development” (Journal of Experimental Botany, 2013).

Target: T1, GST-fused AP-3µ (Arabidopsis thaliana, UniProt F4I562 1-415)
T1 construct: AP-3µ of Arabidopsis thaliana; construction is in Supplementary Method S2, induction and purification in Supplementary Method S3; also called GST-AP-3µ; pGEX-5X-AP-3µ
T1 sequence (looked up): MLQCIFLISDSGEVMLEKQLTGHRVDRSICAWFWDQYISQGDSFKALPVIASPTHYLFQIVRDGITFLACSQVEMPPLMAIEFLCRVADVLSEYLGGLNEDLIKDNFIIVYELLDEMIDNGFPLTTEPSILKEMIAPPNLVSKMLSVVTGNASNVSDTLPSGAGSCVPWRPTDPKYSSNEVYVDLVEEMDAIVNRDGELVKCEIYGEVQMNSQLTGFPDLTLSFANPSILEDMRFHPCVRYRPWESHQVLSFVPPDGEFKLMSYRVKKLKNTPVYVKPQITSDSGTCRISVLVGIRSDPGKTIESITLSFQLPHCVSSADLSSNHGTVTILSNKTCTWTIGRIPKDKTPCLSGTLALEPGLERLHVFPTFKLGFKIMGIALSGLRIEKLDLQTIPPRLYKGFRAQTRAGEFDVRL
Test: pull-down; GST-AP-3µ or GST-AP-3µ^DN bound to Glutathione Sepharose 4 Fast Flow, washed with PBS, incubated with purified His-AGB1 at room temperature for 60 min; eluted with 20 mM reduced glutathione; immunoblot with anti-GST and HisProbe-HRP
Details: both partners purified

B1: Polyhistidine-tagged AGB1 (natural protein, Arabidopsis thaliana, UniProt P49177 1-377, looked up)
chain: MSVSELKERHAVATETVNNLRDQLRQRRLQLLDTDVARYSAAQGRTRVSFGATDLVCCRTLQGHTGKVYSLDWTPERNRIVSASQDGRLIVWNALTSQKTHAIKLPCAWVMTCAFSPNGQSVACGGLDSVCSIFSLSSTADKDGTVPVSRMLTGHRGYVSCCQYVPNEDAHLITSSGDQTCILWDVTTGLKTSVFGGEFQSGHTADVLSVSISGSNPNWFISGSCDSTARLWDTRAASRAVRTFHGHEGDVNTVKFFPDGYRFGTGSDDGTCRLYDIRTGHQLQVYQPHGDGENGPVTSIAFSVSGRLLFAGYASNNTCYVWDTLLGEVVLDLGLQQDSHRNRISCLGLSADGSALCTGSWDSNLKIWAFGGHRRVI
notes: AGB1, G-protein β subunit of Arabidopsis thaliana; His-AGG1 is named in the same sentence but in no result; also called His-AGB1; His-tagged AGB1; source: E. coli, purified
binding result: binds
